The target in the assay is plasma derived C3b (UniProt P01024). The assay can be described thus: cell-based or functional assay.
Chain of UniProt P01024 (P01024 749-1663 limits assumed, chain 1 of 2): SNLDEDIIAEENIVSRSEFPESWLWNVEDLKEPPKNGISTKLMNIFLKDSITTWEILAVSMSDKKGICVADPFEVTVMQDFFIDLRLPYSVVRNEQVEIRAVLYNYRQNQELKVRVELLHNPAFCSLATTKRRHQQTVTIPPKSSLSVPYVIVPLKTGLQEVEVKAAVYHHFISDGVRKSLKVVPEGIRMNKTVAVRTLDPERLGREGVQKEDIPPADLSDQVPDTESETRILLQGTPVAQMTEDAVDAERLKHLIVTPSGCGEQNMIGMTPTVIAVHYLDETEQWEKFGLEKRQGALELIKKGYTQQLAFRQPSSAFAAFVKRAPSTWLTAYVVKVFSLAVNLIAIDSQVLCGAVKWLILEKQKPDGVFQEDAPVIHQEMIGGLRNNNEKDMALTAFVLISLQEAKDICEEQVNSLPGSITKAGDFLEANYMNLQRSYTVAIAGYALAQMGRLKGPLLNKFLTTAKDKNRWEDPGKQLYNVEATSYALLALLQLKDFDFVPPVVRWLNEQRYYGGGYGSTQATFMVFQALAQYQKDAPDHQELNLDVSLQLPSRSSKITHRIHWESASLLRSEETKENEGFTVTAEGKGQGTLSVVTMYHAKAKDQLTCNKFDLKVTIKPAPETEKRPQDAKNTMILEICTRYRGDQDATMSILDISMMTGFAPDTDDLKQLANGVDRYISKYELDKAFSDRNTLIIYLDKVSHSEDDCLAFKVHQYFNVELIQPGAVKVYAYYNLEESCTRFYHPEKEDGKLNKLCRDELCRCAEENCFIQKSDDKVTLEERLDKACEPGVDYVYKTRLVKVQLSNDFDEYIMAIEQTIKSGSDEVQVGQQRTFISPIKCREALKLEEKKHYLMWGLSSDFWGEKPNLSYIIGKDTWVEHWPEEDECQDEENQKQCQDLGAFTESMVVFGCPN
Chain of UniProt P01024 (P01024 23-667 limits assumed, chain 2 of 2): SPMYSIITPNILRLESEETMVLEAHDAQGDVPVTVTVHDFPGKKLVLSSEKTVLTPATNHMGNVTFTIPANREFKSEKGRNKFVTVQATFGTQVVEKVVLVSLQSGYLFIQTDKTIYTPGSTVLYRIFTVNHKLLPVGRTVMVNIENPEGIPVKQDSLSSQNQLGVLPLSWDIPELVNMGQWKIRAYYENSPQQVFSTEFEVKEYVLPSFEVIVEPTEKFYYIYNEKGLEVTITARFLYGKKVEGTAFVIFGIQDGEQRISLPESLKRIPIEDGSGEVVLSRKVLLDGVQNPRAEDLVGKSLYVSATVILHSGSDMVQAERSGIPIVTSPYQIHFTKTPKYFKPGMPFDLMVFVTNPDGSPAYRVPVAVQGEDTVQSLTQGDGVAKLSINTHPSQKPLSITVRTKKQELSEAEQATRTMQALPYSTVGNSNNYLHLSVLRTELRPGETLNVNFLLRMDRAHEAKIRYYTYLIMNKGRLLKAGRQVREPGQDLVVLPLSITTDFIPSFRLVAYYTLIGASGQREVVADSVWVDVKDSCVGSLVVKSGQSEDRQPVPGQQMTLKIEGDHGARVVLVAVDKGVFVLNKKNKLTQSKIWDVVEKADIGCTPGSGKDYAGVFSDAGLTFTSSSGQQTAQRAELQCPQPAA

As for “FH^1-5∧18-20 (from UniProt P08603 19-322; P08603 1046-1231)”, the fluid phase Factor I cofactor activity: concentration of regulator at which the C3α′ band disappears (complete degradation of C3b), SDS-PAGE is 200 nM.

The values above are taken from patent publication US20230101835A1.
